Test results taken from patent US7494767B2, “Assay for TSG101 as inhibitors of HIV production” (priority 2001, dated 2009).

Experiments:
[1] = target: T1, Tsg101 capture by Pr55^Gag (Homo sapiens, UniProt Q99816); test: Immune capture competition assay: Tsg101 capture by Pr55^Gag on antibody-coated Protein A beads; type: binding, mouse or human; settings: 5-fold molar excess of peptide
T1 construct: anneals at the position corresponding to amino acid 10 in the protein, and 3′ primer no; 30, which anneals to the C-terminus; made in house; host or cells: Tsg101: rabbit reticulocyte lysate (TNT T7 system); Pr55Gag: E. coli BL21-DE3
T1 sequence (Q99816 11-390): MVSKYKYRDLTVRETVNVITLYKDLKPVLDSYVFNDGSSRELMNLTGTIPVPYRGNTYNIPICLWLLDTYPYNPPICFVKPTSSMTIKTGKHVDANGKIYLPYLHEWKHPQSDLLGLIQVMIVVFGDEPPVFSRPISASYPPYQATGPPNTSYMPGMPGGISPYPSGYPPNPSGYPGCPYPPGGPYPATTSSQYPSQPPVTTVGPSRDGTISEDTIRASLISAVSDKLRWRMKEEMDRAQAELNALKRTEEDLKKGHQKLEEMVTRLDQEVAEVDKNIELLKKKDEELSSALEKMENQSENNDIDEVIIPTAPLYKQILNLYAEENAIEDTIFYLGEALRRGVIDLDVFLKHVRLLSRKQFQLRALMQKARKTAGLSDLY
Method: Protein detection. Proteins were separated by electrophoresis through a 12.5% SDS polyacrylamide gel. For detection of radiolabeled Tsg101 after electrophoresis, gels were fixed, incubated for 30 min in EN^3HANCE (DuPont NEN) autoradiography enhancer for gel fluorography and dried. Radioactive bands were visualized using imaging film (BioMax, Kodak). Gels with non-radioactive samples were transferred to nitrocellulose and analyzed by Western blotting. The following antibodies, as specified in the text, were used: anti-capsid (CA)1 and -CA2 (rabbit polyclonal antibodies raised against native and denatured forms of the CA protein, respectively; Ebbets-Reed, D., 1996, in Molecular Microbiology, State University of New York at Stony Brook, Stony Brook, N.Y., pp. 209; Ehrlich, L. S., Agresta, B. E. & Carter, C. A., 1992, J. Virol. 66,4874-4883); anti-CA3 (mouse monoclonal antibody, NEN-DuPont); anti-p6 (rabbit polyclonal against the C-terminal 16 amino acids, S. Campbell, NCI-FCRDC); anti-nucleocapsid (NC, goat polyclonal, A. Rein, NCI-FCRDC); anti-T7 (Novagen); anti-Tsg1011 (monoclonal, Santa Cruz); antiTsg1012 (rabbit polyclonal, obtained from S. Cohen, Stanford U.). […]
Tsg101 binds to Pr55^Gag in vitro. […] The protein was detected consistently as a doublet, perhaps due to internal initiation at Met10. The protein was also sometimes detected as a doublet in cytoplasmic extracts. […]

HIV-1 particles = test: Release of HIV-1 virus-like particles from transfected COS-1 cells (Western blot of particles, anti-CA); type: cell-based; settings: 5 μM pa in the absence of pIND-h-Tsg101-FLAG

How did the “reduction in Tsg101 capture by Pr55^Gag” value [1] turn out when LIAPP was run?
Its value is “no change was detected”.

Which “inhibitory effect on virus release” value (HIV-1 particles) does the source give for `CC(C)CC[C@@H](O)[C@](C)(O)[C@H]1CC[C@@]2(O)C3=CC(=O)[C@@H]4C[C@@H](O)[C@@H](O)C[C@]4(C)[C@H]3CC[C@]12C` [pa, reference compound] here?
Its value is “no inhibitory effect”.
